From patent publication US20260139263A1 (IOWA STATE UNIVERSITY RESEARCH FOUNDATION, published 2026)
No end group written: not given here. nYFP = N-terminal end of yellow fluorescent protein

T1: AtNF-YC4-cYFP (Arabidopsis thaliana, UniProt Q9FMV5 1-250)
T1 construct: BiFC construct expressed in tobacco leaves; AtNF-YC4 is fused in-frame to the N-terminus of cYFP; not shown: cYFP (C-terminal end of yellow fluorescent protein)
T1 sequence (looked up): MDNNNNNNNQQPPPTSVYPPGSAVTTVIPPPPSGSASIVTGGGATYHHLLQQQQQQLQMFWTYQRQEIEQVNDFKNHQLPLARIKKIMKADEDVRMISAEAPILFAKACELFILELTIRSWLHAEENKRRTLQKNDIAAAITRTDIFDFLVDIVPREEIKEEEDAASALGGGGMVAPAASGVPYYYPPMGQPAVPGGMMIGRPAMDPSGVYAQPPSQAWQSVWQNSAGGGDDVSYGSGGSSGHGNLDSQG

T2: Arabidopsis Nuclear Factor YB7 (AtNF-YB7), recombinant, tagged, for pull-down (Arabidopsis, UniProt Q9SIT9 1-215)
T2 construct: Contains a histone-fold-like domain; also called AtNF-YB7-GST fusion protein
T2 sequence (looked up): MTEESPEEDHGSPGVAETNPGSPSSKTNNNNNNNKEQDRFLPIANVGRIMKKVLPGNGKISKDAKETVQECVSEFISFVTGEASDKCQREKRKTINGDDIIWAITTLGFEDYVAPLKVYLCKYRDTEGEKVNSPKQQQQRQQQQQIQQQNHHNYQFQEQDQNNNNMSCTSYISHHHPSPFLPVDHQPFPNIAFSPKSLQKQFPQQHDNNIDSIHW


How the values were obtained:
AtNF-YC4-cYFP = target: T1, AtNF-YC4-cYFP; experiment: in vivo co-expression in tobacco leaf
Experimental: QQS and AtNF-YC4 were fused in-frame to the N-terminus of nYFP (N-terminal end of yellow fluorescent protein (YFP)) and cYFP (C-terminal end of YFP), respectively. Agrobacterium strain GV3101 transformed with QQS-nYFP and AtNF-YC4-cYFP constructs were co-infiltrated into Nicotiana tabacum. The reconstituted YFP signal was observed 48 h after infiltration under a Zeiss Axioplan II fluorescence microscope.

[1] = target: T2, Arabidopsis Nuclear Factor YB7 …; experiment: GST pull-down

binding result (AtNF-YC4-cYFP)	binding result [1]	Binder
binds		QQS-nYFP (other, also: nYFP limits and sequence not given here, BiFC construct expressed in tobacco leaves; QQS is fused in-frame to the N-terminus of nYFP; not shown: nYFP (N-terminal end of yellow fluorescent protein)) MKTNREQEIYVERSFKPNNSTIQNLMDIERFILPHTSTSGVARLKMRVISWVGLQFYNY-nYFP
	no binding	GST-QQS fusion protein (other, also: fused to GST tag, position and linker not given here, also called GST-tagged QQS; not shown: glutathione-S-transferase (GST) tag) MKTNREQEIYVERSFKPNNSTIQNLMDIERFILPHTSTSGVARLKMRVISWVGLQFYNY
